For one assay, the target named is T1, 4H881-AA.
T1 chain: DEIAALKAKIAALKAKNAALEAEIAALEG
The assay can be described thus: two-hybrid library CCmax.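 Further: natural log of median RNA to DNA barcode read ratio; higher means stronger binding.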

Another assay has as its target T2, 4H678-AA.
T2 chain: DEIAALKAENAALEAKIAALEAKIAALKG
The assay can be described thus: two-hybrid library CCmax.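 Further: natural log of median RNA to DNA barcode read ratio; higher means stronger binding.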

For the next assay, the target named is T3, 4H993-AA.
T3 chain: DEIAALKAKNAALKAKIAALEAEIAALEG
As to the kind of experiment: two-hybrid library CCmax.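 Further: natural log of median RNA to DNA barcode read ratio; higher means stronger binding.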

Another assay has as its target T4, 4H605-AA.
T4 chain: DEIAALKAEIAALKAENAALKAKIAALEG
The assay can be described thus: two-hybrid library CCmax.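 Further: natural log of median RNA to DNA barcode read ratio; higher means stronger binding.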

The target of a further assay is T5, 4H906-AA.
T5 chain: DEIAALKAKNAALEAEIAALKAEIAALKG
The assay can be described thus: two-hybrid library CCmax.

The target in a further assay is T6, 4H780-AA.
T6 chain: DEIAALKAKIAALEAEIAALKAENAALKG
The assay can be described thus: two-hybrid library CCmax.

The next assay addresses T7, 4H717-AA.
T7 chain: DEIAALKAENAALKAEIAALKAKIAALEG
The assay can be described thus: two-hybrid library CCmax. The settings on record: mean of both orientations.

The target of the next assay is T8, 4H794-AA.
T8 chain: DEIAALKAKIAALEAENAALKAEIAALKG
As to the kind of experiment: two-hybrid library CCmax.

The next assay addresses T9, 4H94-AA.
T9 chain: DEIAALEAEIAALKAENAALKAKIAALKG
The assay can be described thus: two-hybrid library CCmax.

The target in the next assay is T10, 4H710-AA.
T10 chain: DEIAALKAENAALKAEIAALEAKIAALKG
As to the kind of experiment: two-hybrid library CCmax.

The target in the next assay is T11, 4H629-AA.
T11 chain: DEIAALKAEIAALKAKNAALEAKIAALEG
The assay can be described thus: two-hybrid library CCmax.

The next assay concerns the target T12, 4H909-AA.
T12 chain: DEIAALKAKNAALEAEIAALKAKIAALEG
The assay can be described thus: two-hybrid library CCmax.

Another assay deals with T13, 4H745-AA.
T13 chain: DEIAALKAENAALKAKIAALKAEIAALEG
The assay can be described thus: two-hybrid library CCmax. The settings on record: mean of both orientations.

In a further assay the target is T14, 4H797-AA.
T14 chain: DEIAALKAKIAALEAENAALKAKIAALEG
As to the kind of experiment: two-hybrid library CCmax. The settings on record: mean of both orientations.

Another assay has as its target T15, 4H930-AA.
T15 chain: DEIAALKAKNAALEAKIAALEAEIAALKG
The assay can be described thus: two-hybrid library CCmax.

In the next assay the target is T16, 4H891-AA.
T16 chain: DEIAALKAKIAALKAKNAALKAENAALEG
As to the kind of experiment: two-hybrid library CCmax.

Another assay has as its target T17, 4H850-AA.
T17 chain: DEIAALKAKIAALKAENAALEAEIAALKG
The assay can be described thus: two-hybrid library CCmax.

For another assay, the target named is T18, 4H566-AA.
T18 chain: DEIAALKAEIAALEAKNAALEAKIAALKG
The assay can be described thus: two-hybrid library CCmax.

The target of the next assay is T19, 4H967-bN.
T19 chain: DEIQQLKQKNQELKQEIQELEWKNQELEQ
The assay can be described thus: two-hybrid library CCNG1.

The next assay deals with T20, 4H570-AA.
T20 chain: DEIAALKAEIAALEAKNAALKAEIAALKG
As to the kind of experiment: two-hybrid library CCmax.

Another assay has as its target T21, 4H536-AA.
T21 chain: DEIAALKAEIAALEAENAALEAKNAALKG
As to the kind of experiment: two-hybrid library CCmax.

A further assay addresses T22, 4H63-AA.
T22 chain: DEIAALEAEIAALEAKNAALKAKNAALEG
The assay can be described thus: two-hybrid library CCmax.

Like-named read-outs stand apart in the source and are kept apart here.

B1: 4H605-AA (peptide)
chain: DEIAALKAEIAALKAENAALKAKIAALEG
For B1, the interaction score in the assay with 4H881-AA (mean of both orientations) is -0.443; with 4H678-AA (mean of both orientations), -0.274; in the assay with 4H993-AA (mean of both orientations), -1.15; in the assay with 4H605-AA it was 1.29; with 4H906-AA (mean of both orientations), -1.14; with 4H780-AA (mean of both orientations) it was -1.53. For the same molecule, the values for the interaction score with 4H717-AA and in the assay with 4H794-AA (mean of both orientations) were -1.23 and -0.923, respectively.

B2: 4H678-AA (peptide)
chain: DEIAALKAENAALEAKIAALEAKIAALKG
As to B2, the interaction score in the assay with 4H881-AA (mean of both orientations) is 1.21; with 4H678-AA, 1.57; with 4H993-AA (mean of both orientations), 1.05; in the assay with 4H906-AA (mean of both orientations) it was -0.716; with 4H780-AA (mean of both orientations) it was -1.59; in the assay with 4H717-AA, -0.0211. For the same molecule, the interaction score in the assay with 4H794-AA (mean of both orientations) was -1.91.

B3: 4H629-AA (peptide)
chain: DEIAALKAEIAALKAKNAALEAKIAALEG
With B3, the interaction score in the assay with 4H94-AA (mean of both orientations) was -0.298; with 4H710-AA (mean of both orientations) it was -0.399; in the assay with 4H629-AA, 1.86; with 4H909-AA (mean of both orientations), -1.56; with 4H745-AA, -1.44; with 4H797-AA it was -1.05. Further, the interaction score with 4H930-AA (mean of both orientations) is -1.41; with 4H891-AA (mean of both orientations) it was -1.48; with 4H850-AA (mean of both orientations), -0.0456.

B4: 4H710-AA (peptide)
chain: DEIAALKAENAALKAEIAALEAKIAALKG
As for B4, the interaction score in the assay with 4H94-AA (mean of both orientations) is -0.285; in the assay with 4H710-AA, 0.809; with 4H909-AA (mean of both orientations) it was -0.464; with 4H745-AA, 1.86; in the assay with 4H797-AA, -1.31; in the assay with 4H930-AA (mean of both orientations), -0.472. Also, the interaction score was -1.65 with 4H891-AA (mean of both orientations) and -1.15 with 4H850-AA (mean of both orientations).

B5: 4H906-AA (peptide)
chain: DEIAALKAKNAALEAEIAALKAEIAALKG
As to B5, the interaction score with 4H993-AA (mean of both orientations) is -0.00106; in the assay with 4H906-AA, 1.74.

B6: 4H566-AA (peptide)
chain: DEIAALKAEIAALEAKNAALEAKIAALKG
As to B6, the interaction score in the assay with 4H881-AA (mean of both orientations) was 1.95; with 4H678-AA (mean of both orientations), -0.948; in the assay with 4H993-AA (mean of both orientations), 1.6; with 4H605-AA (mean of both orientations), -0.184; with 4H906-AA (mean of both orientations), -1.33; with 4H780-AA (mean of both orientations), -2. For the same molecule, the interaction score in the assay with 4H717-AA is -0.483; with 4H794-AA (mean of both orientations), -0.409; with 4H566-AA, 2.14.

B7: 4H967-bN (peptide)
chain: DEIQQLKQKNQELKQEIQELEWKNQELEQ
As to B7, the interaction score with 4H967-bN is -0.749.

B8: 4H794-AA (peptide)
chain: DEIAALKAKIAALEAENAALKAEIAALKG
As for B8, the interaction score is -0.532 with 4H881-AA (mean of both orientations), -1.99 with 4H993-AA (mean of both orientations), -1.42 with 4H906-AA (mean of both orientations) and 1.84 with 4H794-AA.

B9: 4H536-AA (peptide)
chain: DEIAALKAEIAALEAENAALEAKNAALKG
For the molecule B9, the interaction score with 4H94-AA (mean of both orientations) was -0.957; with 4H710-AA (mean of both orientations), -1.44; with 4H570-AA (mean of both orientations) it was 1.1; with 4H629-AA (mean of both orientations), 0.302; in the assay with 4H909-AA (mean of both orientations), -1.61; with 4H536-AA, 0.339. Further, the interaction score is -1.07 in the assay with 4H745-AA; -0.504 with 4H797-AA; -1.56 in the assay with 4H930-AA (mean of both orientations); 1.78 in the assay with 4H891-AA (mean of both orientations); 1.35 in the assay with 4H850-AA (mean of both orientations).

B10: 4H745-AA (peptide)
chain: DEIAALKAENAALKAKIAALKAEIAALEG
B10: the interaction score with 4H94-AA (mean of both orientations) is -1.46; in the assay with 4H909-AA (mean of both orientations), -0.361; with 4H797-AA it was -1.44; with 4H930-AA (mean of both orientations) it was -0.807; with 4H891-AA (mean of both orientations) it was -1.51; with 4H850-AA (mean of both orientations) it was -0.847.

B11: 4H930-AA (peptide)
chain: DEIAALKAKNAALEAKIAALEAEIAALKG
With B11, the interaction score was -1.34 with 4H94-AA (mean of both orientations) and 1.74 with 4H930-AA.

B12: 4H63-AA (peptide)
chain: DEIAALEAEIAALEAKNAALKAKNAALEG
In the assay with 4H63-AA, B12 registered an interaction score of -1.93.

B13: 4H909-AA (peptide)
chain: DEIAALKAKNAALEAEIAALKAKIAALEG
On to B13, for which the figures for the interaction score with 4H94-AA (mean of both orientations), in the assay with 4H909-AA and with 4H930-AA (mean of both orientations) were -0.983, 2.08 and -1.17, respectively.

B14: 4H850-AA (peptide)
chain: DEIAALKAKIAALKAENAALEAEIAALKG
For the molecule B14, the interaction score was 1.79 in the assay with 4H94-AA (mean of both orientations); -1.47 with 4H909-AA (mean of both orientations); -1.9 with 4H930-AA (mean of both orientations); -0.0612 in the assay with 4H891-AA (mean of both orientations); 1.89 with 4H850-AA.

B15: 4H570-AA (peptide)
chain: DEIAALKAEIAALEAKNAALKAEIAALKG
As to B15, the interaction score in the assay with 4H94-AA (mean of both orientations) was 1.71; with 4H710-AA (mean of both orientations), -1.47; with 4H570-AA, 1.51; in the assay with 4H629-AA (mean of both orientations), -0.598; with 4H909-AA (mean of both orientations), -1.22; with 4H745-AA, -1.48. Also, the interaction score with 4H797-AA was 0.178; in the assay with 4H930-AA (mean of both orientations) it was -1.1; with 4H891-AA (mean of both orientations), -0.736; with 4H850-AA (mean of both orientations) it was 1.66.

B16: 4H891-AA (peptide)
chain: DEIAALKAKIAALKAKNAALKAENAALEG
For the molecule B16, the interaction score with 4H94-AA (mean of both orientations) is -0.169; in the assay with 4H909-AA (mean of both orientations), -1.73; with 4H930-AA (mean of both orientations), -1.86; with 4H891-AA, -1.96.

B17: 4H94-AA (peptide)
chain: DEIAALEAEIAALKAENAALKAKIAALKG
B17: in the assay with 4H94-AA, the interaction score is 2.24.

B18: 4H881-AA (peptide)
chain: DEIAALKAKIAALKAKNAALEAEIAALEG
Regarding B18, the interaction score in the assay with 4H881-AA was -0.685; in the assay with 4H993-AA (mean of both orientations), 1.82; in the assay with 4H906-AA (mean of both orientations), -1.49.

B19: 4H780-AA (peptide)
chain: DEIAALKAKIAALEAEIAALKAENAALKG
With B19, the interaction score is -1.27 in the assay with 4H881-AA (mean of both orientations); -1.51 in the assay with 4H993-AA (mean of both orientations); -1.19 in the assay with 4H906-AA (mean of both orientations); 1.68 in the assay with 4H780-AA; -1.57 with 4H794-AA (mean of both orientations).

B20: 4H993-AA (peptide)
chain: DEIAALKAKNAALKAKIAALEAEIAALEG
In the assay with 4H993-AA, B20 returned an interaction score of 1.19.

The record behind these values is paper PMC10397247.
